Source: US20020102234A1

Molecular target: human IL-1R1 (IL-1 receptor type I), full length, expressed in transfected Jurkat E6.1 cells (human) (UniProt P14778)
Assay: cell-based or functional assay

UniProt P14778, sequence (P14778 18-569): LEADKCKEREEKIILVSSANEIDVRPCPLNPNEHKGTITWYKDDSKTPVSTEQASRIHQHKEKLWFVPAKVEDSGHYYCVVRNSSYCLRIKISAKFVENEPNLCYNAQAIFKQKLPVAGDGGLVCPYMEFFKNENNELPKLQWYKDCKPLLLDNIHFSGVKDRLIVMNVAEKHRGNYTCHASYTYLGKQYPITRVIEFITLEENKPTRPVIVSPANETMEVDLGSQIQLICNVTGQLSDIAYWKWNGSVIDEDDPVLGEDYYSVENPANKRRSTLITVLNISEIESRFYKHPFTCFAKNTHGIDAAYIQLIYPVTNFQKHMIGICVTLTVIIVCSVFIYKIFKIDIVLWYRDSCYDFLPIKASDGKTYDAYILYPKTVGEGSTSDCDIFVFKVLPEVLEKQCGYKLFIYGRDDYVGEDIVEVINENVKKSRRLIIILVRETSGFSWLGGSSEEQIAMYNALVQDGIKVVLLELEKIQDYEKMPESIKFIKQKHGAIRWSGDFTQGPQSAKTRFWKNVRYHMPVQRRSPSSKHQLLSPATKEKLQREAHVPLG

excess over IL-1α giving 50% inhibition of the NFκB reporter response (fold excess over IL-1α): 1000
Substance: recombinant human IL-1RA (IL-1 receptor antagonist) (from UniProt P18510 26-177) (ligand)
